Assay results: article PMC3461310 (2013)
“And” between values parts separate entries of the source, which are not always exact repeats. Identical values can stand only once.

B1: heparin cofactor II (protein)
chain: GSKGPLDQLEKGGETAQSADPQWEQLNNKNLSMPLLPADFHKENTVTNDWIPEGEEDDDYLDLEKIFSEDDDYIDIVDSLSVSPTDSDVSAGNILQLFHGKSRIQRLNILNAKFAFNLYRVLKDQVNTFDNIFIAPVGISTAMGMISLGLKGETHEQVHSILHFKDFVNASSKYEITTIHNLFRKLTHRLFRRNFGYTLRSVNDLYIQKQFPILLDFKTKVREYYFAEAQIADFSDPAFISKTNNHIMKLTKGLIKDALENIDPATQMMILNCIYFKGSWVNKFPVEMTHNHNFRLNEREVVKVSMMQTKGNFLAANDQELDCDILQLEYVGGISMLIVVPHKMSGMKTLEAQLTPRVVERWQKSMTNRTREVLLPKFKLEKNYNLVESLKLMGIRMLFDKNGNMAGISDQRIAIDLFKHQGTITVNEEGTQATTVTTVGFMPLSTQVRFTVDRPFLFLIYEHRTSCLLFMGRVANPSRS
B2: prothrombin fragment 2 fragment 2 (protein)
chain: SEGSSVNLSPPLEQCVPDRGQQYQGRLAVTTHGLPCLAWASAQAKALSKHQDFNSAVQLVENFCRNPDGDEEGVWCYVAGKPGDFGYCDLNYCEEAVEEETGDGLDEDSDRAIEGRTATSEYQTFFNPR

Experiments:
thrombin = thrombin (Homo sapiens, UniProt P00734, heparin (1 and 50 μM)); experiment: inactivation kinetics with Hir-
thrombin ([6F]FFR-T) [1] = target: thrombin ([6F]FFR-T) (Homo sapiens, UniProt P00734, active site labeled with 6-fluorescein-FFR, heparin (T·Hep complex)); experiment: fluorescence equilibrium binding
thrombin ([6F]FFR-T) [2] = target: thrombin ([6F]FFR-T) (Homo sapiens, UniProt P00734, active site labeled with 6-fluorescein-FFR, heparin (T·(Hep)2 complex)); experiment: fluorescence equilibrium binding
thrombin ([4′F]FPR-T) [3] = target: thrombin ([4′F]FPR-T) (Homo sapiens, UniProt P00734, active site labeled with 4′-fluorescein-FPR, heparin (T·Hep complex)); experiment: fluorescence equilibrium binding
thrombin ([4′F]FPR-T) [4] = target: thrombin ([4′F]FPR-T) (Homo sapiens, UniProt P00734, active site labeled with 4′-fluorescein-FPR, heparin (T·(Hep)2 complex)); experiment: fluorescence equilibrium binding
thrombin ([4′F]FPR-T) [5] = target: thrombin ([4′F]FPR-T) (Homo sapiens, UniProt P00734, active site labeled with 4′-fluorescein-FPR); experiment: fluorescence equilibrium binding

Row | Binder | Kd (thrombin) [nM] | Kd (thrombin ([6F]FFR-T) [1]) | Kd (thrombin ([6F]FFR-T) [2]) [nM] | Kd (thrombin ([4′F]FPR-T) [3]) | Kd (thrombin ([4′F]FPR-T) [4]) [nM] | Kd (thrombin ([4′F]FPR-T) [5]) [nM]
1 | B1 | 40 | 300 nM and 150 nM | 140 | 200 nM and 230 nM | 600 | 
2 | B2 |  |  |  |  |  | 5000
